Data as given in IntAct's records for PubMed 19934257.

B1: NAD-dependent protein deacetylase sirtuin-1 (Homo sapiens), Q96EB6 (parent)
chain: MADEAALALQPGGSPSAAGADREAASSPAGEPLRKRPRRDGPGLERSPGEPGGAAPEREVPAAARGCPGAAAAALWREAEAEAAAAGGEQEAQATAAAGEGDNGPGLQGPSREPPLADNLYDEDDDDEGEEEEEAAAAAIGYRDNLLFGDEIITNGFHSCESDEEDRASHASSSDWTPRPRIGPYTFVQQHLMIGTDPRTILKDLLPETIPPPELDDMTLWQIVINILSEPPKRKKRKDINTIEDAVKLLQECKKIIVLTGAGVSVSCGIPDFRSRDGIYARLAVDFPDLPDPQAMFDIEYFRKDPRPFFKFAKEIYPGQFQPSLCHKFIALSDKEGKLLRNYTQNIDTLEQVAGIQRIIQCHGSFATASCLICKYKVDCEAVRGDIFNQVVPRCPRCPADEPLAIMKPEIVFFGENLPEQFHRAMKYDKDEVDLLIVIGSSLKVRPVALIPSSIPHEVPQILINREPLPHLHFDVELLGDCDVIINELCHRLGGEYAKLCCNPVKLSEITEKPPRTQKELAYLSELPPTPLHVSEDSSSPERTSPPDSSVIVTLLDQAAKSNDDLDVSESKGCMEEKPQEVQTSRNVESIAEQMENPDLKNVGSSTGEKNERTSVAGTVRKCWPNRVAKEQISRRLDGNQYLFLPPNRYIFHGAEVYSDSEDDVLSSSSCGSNSDSGTCQSPSLEEPMEDESEIEEFYNGLEDEPDVPERAGGAGFGTDGDDQEAINEAISVKQEVTDMNYPSNKS

Variants of: B1
Conditions: with apex1_human APEX1, P27695
Sequence of apex1_human APEX1, P27695 (P27695 whole entry): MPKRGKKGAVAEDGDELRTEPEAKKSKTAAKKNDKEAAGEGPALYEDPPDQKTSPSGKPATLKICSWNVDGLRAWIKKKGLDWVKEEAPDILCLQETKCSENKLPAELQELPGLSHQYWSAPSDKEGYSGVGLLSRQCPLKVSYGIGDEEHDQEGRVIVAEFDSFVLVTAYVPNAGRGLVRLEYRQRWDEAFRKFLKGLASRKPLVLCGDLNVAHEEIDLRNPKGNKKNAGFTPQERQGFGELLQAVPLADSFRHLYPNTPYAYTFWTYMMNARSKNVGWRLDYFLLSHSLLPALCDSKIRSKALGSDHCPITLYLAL

| effect of a mutation on the interaction | Variant |
| --- | --- |
| disrupting interaction | H363Y |
